B1: P-0757 (wild-type IL-2RαSushi monovalent Fc fusion) (Fc fusion)
chain: ELCDDDPPEIPHATFKAMAYKEGTMLNCECKRGFRRIKSGSLYMLCTGNSSHSSWDNQCQCTSSATRNTTKQVTPQPEEQKERKTTEMQSPMQPVDQASLPGHCREPPPWENEATERIYHFVVGQMVYYQCVQGYRALHRGPAESVCKMTHGKTRWTQPQLICTG
notes: also called w/t IL-2Rα; not shown: Fc chain fused to the Sushi domain, its linker and orientation, and the partner Fc chain of the monovalent heterodimer
B2: P-0753 (IL-2RαSushi R36A monovalent Fc fusion) (Fc fusion)
chain: B1 chain with R36A
notes: also called IL-2Rα R36A; not shown: Fc chain fused to the Sushi variant, its linker and orientation, and the partner Fc chain of the monovalent heterodimer
B3: P-0752 (IL-2RαSushi L42G monovalent Fc fusion) (Fc fusion)
chain: B1 chain with L42G
notes: also called IL-2Rα L42G; not shown: Fc chain fused to the Sushi variant, its linker and orientation, and the partner Fc chain of the monovalent heterodimer
B4: P-0751 (IL-2RαSushi Y43A monovalent Fc fusion) (Fc fusion)
chain: B1 chain with Y43A
notes: also called IL-2Rα Y43A; not shown: Fc chain fused to the Sushi variant, its linker and orientation, and the partner Fc chain of the monovalent heterodimer
B5: L03 (IL-2Rβ-based blocking peptide) (peptide)
peptide: CEISQASHYFERHLC
modifications: bridge 1-15 (inferred); also: biotinylated, site not given here, cyclized, bridge kind not given here
notes: also called cyclized loop 2

Positions count from the first letter of the chain named. Names may count otherwise. Bridge positions count the residues as written; N and C are the ends. Ends that are not written are not given here.

What is called EC50 is the concentration giving half of the maximal effect.

For the first assay, the target named is T1, P-0689 (IL-2 Fc fusion) (Homo sapiens (Human), UniProt P0DOX5 223-448 = IgG part).
T1 construct: Monovalent IL-2 S125I Fc fusion; also called IL-2 S125I monovalent Fc fusion protein; monovalent wild-type IL-2 Fc fusion protein
Nature of the assay: ELISA, IL-2RαSushi Fc fusion coated, P-0689 titrated, biotin anti-IL2 antibody and Avidin-HRP. The procedure: IL-2Rα variants were designed to reduce binding to IL-2 by incorporating mutations at residues interacting IL-2 so that the D3 moiety would readily diffuse away upon in vivo proteolysis. Three exemplary IL-2RαSushi variants (SEQ ID NOS: 267-269) were expressed as monovalent Fc fusion proteins corresponding to P-0751 (Y43A), P-0752 (L42G), and P-0753 (R36A), respectively. The three IL-2RαSushi variant Fc fusions were assessed for the impacts of individual mutations on binding to IL-2 in ELISA in comparison to their wild-type IL-2RαSushi counterpart fusion referred to as P-0757.
Briefly, IL-2RαSushi variant monovalent Fc fusion proteins was coated onto the wells of Nunc Maxisorp 96-well microplates at 1 μg/well. […] Following a one-hour incubation at room temperature, 100 μl/well of biotin anti-IL2 antibody clone B33-2 (BD biosciences) at 1 μg/ml were added to each well and incubated at room temperature for 1 hour. Subsequently, 100 μl/well of Avidin-HRP (BioLegend) at 1:500 dilution was added to each well and incubated for 30 min. Finally, 100 μl TMB substrate was added to each well; the plate was developed at room temperature, and 100 μl/well of stop solution was added. Absorbance was determined at 450 nm and curves were fit using Prism software (GraphPad).
Take B1: the concentration for a half-maximal effect (EC50) was found to be 0.26 nM and the “EC50 Fold change vs w/t IL-2Rα” value stood at 1 fold.

Turning to B2, the EC50 amounted to 90 nM and the “EC50 Fold change vs w/t IL-2Rα” value is 346 fold.

Consider B3, for which the concentration giving a half-maximal response (EC50) worked out at 9.2 nM and the “EC50 Fold change vs w/t IL-2Rα” value is 35 fold.

Take B4: the 50% effective concentration (EC50) worked out at 2.1 nM and the “EC50 Fold change vs w/t IL-2Rα” value came out at 8.1 fold.

In a further assay the target is P-0153 (IL-15/IL-15RαSushi+ Fc fusion protein). The assay can be described thus: ELISA, P-0153 coated, biotinylated peptide titrated, Streptavidin-HRP. On the procedure: The five peptides, L01 to L05 (SEQ ID NO: 97-101) in Table 19 were synthesized and assessed for their binding to IL-15 in ELISA format. […] Streptavidin-HRP complex at the manufacturer's recommended concentration was added and signal was developed by TMB substrate.
Sequence of P-0153 (IL-15/IL-15RαSushi+ Fc fusion protein) (chain, as listed by the source, chain 1 of 2): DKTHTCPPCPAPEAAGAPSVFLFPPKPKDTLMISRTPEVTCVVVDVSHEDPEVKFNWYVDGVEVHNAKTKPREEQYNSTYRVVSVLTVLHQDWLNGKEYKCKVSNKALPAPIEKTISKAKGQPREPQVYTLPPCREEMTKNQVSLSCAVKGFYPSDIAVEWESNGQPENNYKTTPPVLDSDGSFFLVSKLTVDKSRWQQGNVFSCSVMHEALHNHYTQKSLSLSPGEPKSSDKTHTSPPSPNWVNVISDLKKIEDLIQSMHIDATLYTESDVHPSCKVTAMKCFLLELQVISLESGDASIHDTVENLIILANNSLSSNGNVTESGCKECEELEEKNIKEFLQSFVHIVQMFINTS
Sequence of P-0153 (IL-15/IL-15RαSushi+ Fc fusion protein) (chain, as listed by the source, chain 2 of 2): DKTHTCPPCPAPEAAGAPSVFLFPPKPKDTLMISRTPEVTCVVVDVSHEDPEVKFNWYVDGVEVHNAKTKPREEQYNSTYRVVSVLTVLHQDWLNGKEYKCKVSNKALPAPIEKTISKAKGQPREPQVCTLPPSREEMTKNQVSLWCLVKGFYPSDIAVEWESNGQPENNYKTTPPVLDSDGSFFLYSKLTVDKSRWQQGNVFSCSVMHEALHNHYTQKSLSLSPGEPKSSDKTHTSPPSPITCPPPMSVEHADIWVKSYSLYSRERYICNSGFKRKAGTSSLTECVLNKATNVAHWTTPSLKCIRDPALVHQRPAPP
Background: ELISA stands for enzyme-linked immunosorbent assay.
As to B5, the binding result is “binds”.

Values taken from patent publication US20230093155A1 (CUGENE, published 2023).
